One may read the Kd as the constant that tells how readily two partners part at equilibrium.

A value given as a limit tells only on which side of the number the result lay.

The target of the data set is NbMTA (Nicotiana benthamiana) (UniProt A0A1J6JV69). The experiment in a line: BLI. The following applies: Octet RED 96, Super Streptavidin sensors, 100 nM biotinylated ssRNA loaded, NbMTA (50 nM stated; serial dilutions), equilibration in 0.01 M saline, PBS ….
Consider “GGGAAAAAUAAAUCCAAAAGAAUUCAAGCCUUGAAGUUUCGCCAUGCUCGUGACAAAAGGGCUGGUUUUGAAAUUGACAACAAUGAUGACACAAUAGAGGAAUUCUUUGGAUCUGCAUACAGGAAAAAGGGAAAAGGUAAAGGUACCACUGUUGGUAUGGGCAAGUCAAGCAGAAGGUUUGUUAA [PVY NIa peak 2-1 probe]”, for which the Kd was > 30 µM.

Regarding “UGCAGUUCGUUCAUCACCAAGCUACGACGUCACUUGCAAAGGAUCUCAAGUUGAAGGGGACUUGGAAGAAGUCAUUAGUGGCCAAAGACUUGAUCAUAGCAGGCGCUGUUGCAAUUGGUGGAAUAGGACUCAUAUAUAGUUGGUUCACACAAUCAGUUGAGACUGUGUCUCACCAA [PVY 6K2 peak 2-1 probe]”, the equilibrium dissociation constant (Kd) is > 30 µM.

Regarding “UCUGGGACACAUACUGUGCCGAGAAUCAAGGCUAUCACGUCCAAAAUGAGAAUGCCCAAAAGCAAGGGAGCAACCGUGCUAAACUUAGAACACUUGCUUGAGUAUGCUCCACAACAAAUUGAUAUUUCAAAUACUCGGGCAACUCAAUCACA [PVY CP peak 3 probe]”, the Kd was determined as 3.1 µM.

Source of the values: article PMC12902261.
